Paper PMC4864540, “Isolation and Characterization of a Broad Spectrum Bacteriocin from Bacillus amyloliquefaciens RX7” (BioMed Research International, 2016)

Tests used:
[1] = tested on: L. monocytogenes ATCC 19114; test: Mode of action, time-kill study (viable cell count); type: cell-based, Listeria monocytogenes; conditions: 80 AU/mL added to L. monocytogenes at 4.2 × 10^8 CFU/mL, mid-exponential phase, viable counts at 1-hour intervals, mean of three experiments
Method: To determine the mode of action of the bacteriocin, the crude bacteriocin was added at a final concentration of 80 AU/mL to the culture at the mid-exponential growth phase of L. monocytogenes ATCC 19114 in 20 mL of TSB medium. Viable cells were counted at 1-hour intervals for the next 8 hours. Viable cell counting was repeated in triplicate and the mean values were calculated.

α-chymotrypsin = molecular target: T1, α-chymotrypsin (Bos taurus, UniProt P00766); test: Effect of enzyme treatment on antimicrobial activity; type: in vitro ADME; conditions: α-Chymotrypsin 10 mg/mL, 37°C, 2 h, then boiled 2 min; residual antimicrobial activity vs before treatment, against L. monocytogenes ATCC 19114
T1 construct: purchased Sigma (USA) and Takara (Japan)
Method: (§1) To evaluate pH stability, the pH of crude bacteriocin solution was adjusted with 1 N HCl and 1 N NaOH and readjusted to pH 7 after incubation for 2 h at 37°C. To evaluate thermal stability, the crude bacteriocin solution was incubated at 4, 37, 50, 80, and 100°C for 15–30 minutes. All samples were cooled to room temperature before activity assays. To analyze sensitivity to various enzymes, the crude bacteriocin solution was treated at 37°C for 2 h with 10 mg/mL (final concentration) of the following enzymes: α-amylase, α-chymotrypsin, lipase, proteinase-K, pepsin, or trypsin. All enzymes used were from Sigma (USA) and Takara (Japan). The samples were then boiled for 2 min to denature the enzymes and cooled to room temperature. Samples were exposed to various organic solvents at a final concentration of 10% (v/v) to explore their effects on bacteriocin activity. After incubation for 2 h at 37°C, the residual activity was recorded. All treated samples were tested for residual activity against L. monocytogenes ATCC 19114, as described above.

trypsin = test: as above; type: in vitro ADME; conditions: Trypsin 10 mg/mL, 37°C, 2 h, then boiled 2 min; residual antimicrobial activity vs before treatment, against L. monocytogenes ATCC 19114
Method: as §1

α-amylase = test: as above; type: in vitro ADME; conditions: α-Amylase 10 mg/mL, 37°C, 2 h, then boiled 2 min; residual antimicrobial activity vs before treatment, against L. monocytogenes ATCC 19114
Method: as §1

pepsin = molecular target: T2, pepsin (Sus scrofa, UniProt P00791); test: as above; type: in vitro ADME; conditions: Pepsin 10 mg/mL, 37°C, 2 h, then boiled 2 min; residual antimicrobial activity vs before treatment, against L. monocytogenes ATCC 19114
T2 construct: purchased Sigma (USA) and Takara (Japan)
T2 sequence (P00791 60-385): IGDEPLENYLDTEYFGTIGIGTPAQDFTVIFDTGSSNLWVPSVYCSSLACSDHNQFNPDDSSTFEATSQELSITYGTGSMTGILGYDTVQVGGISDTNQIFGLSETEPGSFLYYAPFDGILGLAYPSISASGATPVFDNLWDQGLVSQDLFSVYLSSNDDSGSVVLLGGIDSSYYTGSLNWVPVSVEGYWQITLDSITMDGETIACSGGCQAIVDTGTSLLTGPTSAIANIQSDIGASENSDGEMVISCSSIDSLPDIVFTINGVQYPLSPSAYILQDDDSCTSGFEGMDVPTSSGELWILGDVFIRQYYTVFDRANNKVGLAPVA
Method: as §1

proteinase-K = molecular target: T3, proteinase-K (Parengyodontium album, UniProt P06873); test: as above; type: in vitro ADME; conditions: Proteinase-K 10 mg/mL, 37°C, 2 h, then boiled 2 min; residual antimicrobial activity vs before treatment, against L. monocytogenes ATCC 19114
T3 construct: purchased Sigma (USA) and Takara (Japan)
T3 sequence (P06873 106-384): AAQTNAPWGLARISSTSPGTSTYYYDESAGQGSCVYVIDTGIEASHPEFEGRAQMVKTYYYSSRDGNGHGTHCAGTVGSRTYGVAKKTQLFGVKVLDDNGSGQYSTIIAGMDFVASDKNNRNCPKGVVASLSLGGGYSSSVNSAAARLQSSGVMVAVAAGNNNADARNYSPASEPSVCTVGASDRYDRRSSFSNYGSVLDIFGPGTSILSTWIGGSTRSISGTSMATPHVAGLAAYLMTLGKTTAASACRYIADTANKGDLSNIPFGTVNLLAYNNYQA
Method: as §1

lipase = test: as above; type: in vitro ADME; conditions: Lipase 10 mg/mL, 37°C, 2 h, then boiled 2 min; residual antimicrobial activity vs before treatment, against L. monocytogenes ATCC 19114
Method: as §1

[2] = tested on: Salmonella enteritidis KCCM 12021; test: Agar well diffusion assay; type: cell-based; conditions: cell-free supernatant, medium NB
Method: (§2) Soil samples were collected from a farm in Cheonan city, Korea. They were mixed with sterile water (1 : 10, w/v), homogenized, and heated at 50°C for 60 min in a water bath. One mL of this suspension was inoculated into 100 mL of tryptic soy broth (Difco, USA) and incubated at 50°C for 24 h, after which microbial growth was monitored based on changes in turbidity of the cultures. Aliquots of the cultures were inoculated onto TSB plates, incubated at 30°C, and single colonies were isolated and screened for antimicrobial activity. The antimicrobial activity was performed according to Ramachandran et al. with modifications. It was expressed as the diameter of the inhibition zones around the wells using agar well diffusion assays with Listeria monocytogenes ATCC 19114 as the indicator strain.
(§3) Antimicrobial activity was detected using the agar well diffusion assay and tested against all indicator strains (Table 1) grown in their respective media, as indicated (Difco, USA). An aliquot of culture was centrifugated at 6,000 g for 15 min at 4°C (Mega 21R, Hanil Co., Republic of Korea), filtered using 0.45 μm pore-size cellulose acetate syringe filters (Advantec Co., Japan) to remove cells, then applied to wells on agar plates. Experiments were done in no less than five individual trials having no less than three replications.
(§4) The plates were incubated at the optimal temperature of the test organism. The bacteriocin titer was determined using the serial twofold dilution method. Activity was defined as the reciprocal of the dilution after the last serial dilution giving a zone of inhibition and was expressed as activity units (AU) per milliliter. All measurements were done in triplicate and the means are shown as the results.

[3] = tested on: Streptococcus agalactiae ATCC 13813; test: Agar well diffusion assay; type: cell-based; conditions: cell-free supernatant, medium TSB
Method: as §2, §3, §4

[4] = tested on: Klebsiella pneumoniae subsp. pneumoniae KCCM 11418; test: Agar well diffusion assay; type: cell-based; conditions: cell-free supernatant, medium NB
Method: as §2, §3, §4

[5] = tested on: Lactobacillus delbrueckii KCCM 11357; test: Agar well diffusion assay; type: cell-based; conditions: cell-free supernatant, medium MRS
Method: as §2, §3, §4

Escherichia coli K88 = test: Agar well diffusion assay; type: cell-based; conditions: cell-free supernatant, medium LB
Method: as §2, §3, §4

[6] = tested on: Listeria monocytogenes ATCC 19114; test: Agar well diffusion assay; type: cell-based; conditions: cell-free supernatant, medium TSB
Method: as §2, §3, §4

[7] = tested on: Salmonella gallinarum KVCC-BA0700722; test: Agar well diffusion assay; type: cell-based; conditions: cell-free supernatant, medium NB
Method: as §2, §3, §4

[8] = tested on: Enterococcus faecalis (VRE) CCARM 0011; test: Agar well diffusion assay; type: cell-based; conditions: cell-free supernatant, medium NB
Method: as §2, §3, §4

[9] = tested on: Salmonella typhimurium KCCM 40253; test: Agar well diffusion assay; type: cell-based; conditions: cell-free supernatant, medium NB
Method: as §2, §3, §4

[10] = tested on: Lactobacillus plantarum KCCM 11322; test: Agar well diffusion assay; type: cell-based; conditions: cell-free supernatant, medium MRS
Method: as §2, §3, §4

[11] = tested on: Bacillus licheniformis KCCM 12145; test: Agar well diffusion assay; type: cell-based; conditions: cell-free supernatant, medium NB
Method: as §2, §3, §4

[12] = tested on: Lactobacillus johnsonii PF01 (our isolate); test: Agar well diffusion assay; type: cell-based; conditions: cell-free supernatant, medium MRS
Method: as §2, §3, §4

[13] = tested on: Staphylococcus aureus KFRI 00188; test: Agar well diffusion assay; type: cell-based; conditions: cell-free supernatant, medium NB
Method: as §2, §3, §4

[14] = tested on: Bacillus cereus KCTC 1661; test: Agar well diffusion assay; type: cell-based; conditions: cell-free supernatant, medium LB
Method: as §2, §3, §4

[15] = tested on: Salmonella pullorum KVCC-BA0702509; test: Agar well diffusion assay; type: cell-based; conditions: cell-free supernatant, medium NB
Method: as §2, §3, §4

[16] = tested on: Staphylococcus aureus subsp. aureus (MRSA) KCCM 40510; test: Agar well diffusion assay; type: cell-based; conditions: cell-free supernatant, medium NB
Method: as §2, §3, §4

[17] = tested on: Pseudomonas aeruginosa CCARM 2003; test: Agar well diffusion assay; type: cell-based; conditions: cell-free supernatant, medium LB
Method: as §2, §3, §4

[18] = tested on: Salmonella enteritidis KVCC-BA0700654; test: Agar well diffusion assay; type: cell-based; conditions: cell-free supernatant, medium NB
Method: as §2, §3, §4

[19] = tested on: Pseudomonas aeruginosa KCCM 11266; test: Agar well diffusion assay; type: cell-based; conditions: cell-free supernatant, medium NB
Method: as §2, §3, §4

[20] = tested on: Lactobacillus acidophilus KCCM 32820; test: Agar well diffusion assay; type: cell-based; conditions: cell-free supernatant, medium MRS
Method: as §2, §3, §4

[21] = tested on: Shigella flexneri KCCM 40414; test: Agar well diffusion assay; type: cell-based; conditions: cell-free supernatant, medium NB
Method: as §2, §3, §4

[22] = tested on: Lactobacillus salivarius CPM7 (our isolate); test: Agar well diffusion assay; type: cell-based; conditions: cell-free supernatant, medium MRS
Method: as §2, §3, §4

[23] = tested on: Streptococcus mutans ATCC 25175; test: Agar well diffusion assay; type: cell-based; conditions: cell-free supernatant, medium BHI
Method: as §2, §3, §4

[24] = tested on: Candida albicans KCTC 7122; test: Agar well diffusion assay; type: cell-based; conditions: cell-free supernatant, medium PDA
Method: as §2, §3, §4

[25] = tested on: L. monocytogenes ATCC 19114; test: pH stability of antimicrobial activity; type: physicochemical, Listeria monocytogenes; conditions: for Residual activity (%): 2 h at 37°C, residual activity against L. monocytogenes ATCC 19114
Method: as §1

[26] = tested on: L. monocytogenes ATCC 19114; test: Effect of organic solvents on antimicrobial activity; type: physicochemical, Listeria monocytogenes; conditions: 2 h at 37°C, residual activity against L. monocytogenes ATCC 19114
Method: as §1

[27] = tested on: L. monocytogenes ATCC 19114; test: Thermal stability of antimicrobial activity; type: physicochemical, Listeria monocytogenes; conditions: cooled to room temperature, residual activity vs before treatment, against L. monocytogenes ATCC 19114
Method: as §1

NH2-X-Ala-Trp-Tyr-Asp-Ile-Arg-Lys-Leu-Gly-Asn-Lys-Gly-Ala [RX7 bacteriocin, Bacteriocin of approximately 5 kDa produced by Bacillus amyloliquefaciens RX7; homologous to lantibiotic haloduracin A1]
2 h: incubation time for complete bactericidal action (no colony formation on TSB agar) [1]
+++ (less than 30 mm): Inhibition zone (mm) [6]
3–8: pH range in which full activity was observed ([25]; 2 h at 37°C at the given pH, readjusted to pH 7, activity against L. monocytogenes ATCC 19114)
20%: Residual activity (%) ([27]; heat 121°C/15 min)
++ (less than 20 mm): Inhibition zone (mm) [2] | Inhibition zone (mm) [3] | Inhibition zone (mm) (Escherichia coli K88) | Inhibition zone (mm) [7] | Inhibition zone (mm) [8] | Inhibition zone (mm) [9] | Inhibition zone (mm) [11] | Inhibition zone (mm) [13] | Inhibition zone (mm) [14] | Inhibition zone (mm) [17] | Inhibition zone (mm) [18] | Inhibition zone (mm) [19] | Inhibition zone (mm) [21] | Inhibition zone (mm) [24]
90%: Residual activity (%) ([25]; pH 2 (1 N HCl/1 N NaOH), readjusted to pH 7) | Residual activity (%) ([25]; pH 9 (1 N HCl/1 N NaOH), readjusted to pH 7) | Residual activity (%) ([26]; Acetone 10% (v/v)) | Residual activity (%) ([26]; Acetonitrile 10% (v/v)) | Residual activity (%) ([26]; Ethanol 10% (v/v))
0%: Residual activity (%) (α-chymotrypsin) | Residual activity (%) (trypsin) | Residual activity (%) (proteinase-K)
+ (less than 10 mm): Inhibition zone (mm) [4] | Inhibition zone (mm) [5] | Inhibition zone (mm) [10] | Inhibition zone (mm) [12] | Inhibition zone (mm) [15] | Inhibition zone (mm) [16] | Inhibition zone (mm) [20] | Inhibition zone (mm) [22] | Inhibition zone (mm) [23]
100%: Residual activity (%) (α-amylase) | Residual activity (%) (pepsin) | Residual activity (%) (lipase) | Residual activity (%) ([25]; pH 3 (1 N HCl/1 N NaOH), readjusted to pH 7) | Residual activity (%) ([25]; pH 4 (1 N HCl/1 N NaOH), readjusted to pH 7) | Residual activity (%) ([25]; pH 5 (1 N HCl/1 N NaOH), readjusted to pH 7) | Residual activity (%) ([25]; pH 6 (1 N HCl/1 N NaOH), readjusted to pH 7) | Residual activity (%) ([25]; pH 7 (1 N HCl/1 N NaOH)) | Residual activity (%) ([25]; pH 8 (1 N HCl/1 N NaOH), readjusted to pH 7) | Residual activity (%) ([27]; heat 4°C/30 min) | Residual activity (%) ([27]; heat 37°C/30 min) | Residual activity (%) ([27]; heat 50°C/30 min) | Residual activity (%) ([27]; heat 80°C/30 min)
80%: Residual activity (%) ([25]; pH 1 (1 N HCl/1 N NaOH), readjusted to pH 7) | Residual activity (%) ([25]; pH 10 (1 N HCl/1 N NaOH), readjusted to pH 7) | Residual activity (%) ([26]; Butanol 10% (v/v)) | Residual activity (%) ([26]; Chloroform 10% (v/v)) | Residual activity (%) ([26]; Methanol 10% (v/v)) | Residual activity (%) ([27]; heat 100°C/30 min)
